Test results reported in US20210347873A1 (SHANGHAI PHARMAEXPLORER, published 2021).
Where two headings read alike, the source gives them in different places.

Tests used:
[1] = biological target: T1, biotinylated hBLyS-ECD (human, UniProt Q9Y275 134-285, biotinylated with Biotin-X-X-NHS (molar ratio 7:1); sites not stated); test: ELISA on captured biotinylated hBLyS-ECD; antibody 0.107 nM
T1 construct: also called biotinylated immunogen; biotinylated hBLvS-ECD

[2] = biological target: T2, extracellular domain of human BLyS protein (hBLyS-ECD), His-tagged, Ala134-Leu285 (human, UniProt Q9Y275 134-285); test: cell-based or functional assay
[3] = biological target: T2, extracellular domain of human BLyS …; test: SPR (Biacore), antibody captured by anti-human Fc, hBLyS-ECD as analyte
[4] = biological target: T1, biotinylated hBLyS-ECD; test: ELISA on captured biotinylated hBLyS-ECD; antibody 2.67 nM
[5] = biological target: T1, biotinylated hBLyS-ECD; test: ELISA on captured biotinylated hBLyS-ECD; antibody 0 nM (background)
[6] = biological target: T1, biotinylated hBLyS-ECD; test: ELISA on captured biotinylated hBLyS-ECD; antibody 0.0213 nM
[7] = biological target: T1, biotinylated hBLyS-ECD; test: ELISA on captured biotinylated hBLyS-ECD; antibody 13.3 nM
[8] = biological target: T1, biotinylated hBLyS-ECD; test: ELISA on captured biotinylated hBLyS-ECD; antibody 66.7 nM
[9] = biological target: T1, biotinylated hBLyS-ECD; test: ELISA on captured biotinylated hBLyS-ECD; antibody 0.534 nM
[10] = biological target: T1, biotinylated hBLyS-ECD; test: ELISA on captured biotinylated hBLyS-ECD; antibody 0.00427 nM
[11] = biological target: T2, extracellular domain of human BLyS …; test: cell-based or functional assay; remark: listed apart in the source
[12] = biological target: T3, biotinylated hBLyS-ECD (human, UniProt Q9Y275 134-285, biotinylated with Biotin-X-X-NHS (molar ratio 7:1), sites not stated); test: ELISA: biotinylated hBLyS-ECD captured on streptavidin, antibody titrated, HRP secondary antibody
T3 construct: The hBLyS-ECD of Embodiment 1 after biotinylation (Embodiment 2); also called biotinylated immunogen; BLyS protein; not shown: His tag of the pCPC vector

[13] = biological target: T3, biotinylated hBLyS-ECD; test: as above; remark: listed apart in the source

OD450 nm [1] [OD450 nm] | Proportion of B lymphocytes in splenocytes (%), in vivo in mice [2] [%] | Kd [3] [nM] | koff [3] [s⁻¹] | kon [3] [M⁻¹ s⁻¹] | OD450 nm [4] [OD450 nm] | OD450 nm [5] [OD450 nm] | OD450 nm [6] [OD450 nm] | OD450 nm [7] [OD450 nm] | OD450 nm [8] [OD450 nm] | OD450 nm [9] [OD450 nm] | OD450 nm [10] [OD450 nm] | OD450 nm (as headed), mouse B lymphocyte proliferation; antibody 0 nM [11] | OD450 nm (as headed), mouse B lymphocyte proliferation; antibody 0.000256 nM [11] | OD450 nm (as headed), mouse B lymphocyte proliferation; antibody 0.00128 nM [11] | OD450 nm (as headed), mouse B lymphocyte proliferation; antibody 0.0064 nM [11] | OD450 nm (as headed), mouse B lymphocyte proliferation; antibody 0.032 nM [11] | OD450 nm (as headed), mouse B lymphocyte proliferation; antibody 0.16 nM [11] | OD450 nm (as headed), mouse B lymphocyte proliferation; antibody 0.8 nM [11] | EC50 (read off the curve) [12] [nM] | Binder | other results
2.12 | 33.2 | 0.297 | 2.98e-05 | 100000 | 3.4 | 0.105 | 0.747 | 3.39 | 3.43 | 3.16 | 0.222 |  |  |  |  |  |  |  |  | c111D10D6G3 (antibody, V domains shown) VH: QVQLQQPGAELVKPGASVKMSCKASGYTFTRHWITWVKQRPGQGLEWIGDIFPGSGSINYNEKFKSEATLTVEKSSSTAYMQLSSLTSEDSAVYYCARGDVDVWGTGTTVTVSS VL: DIQMTQSPSSLSASLGERVSLTCRASQEIRGYLSWLQQKPNGTIKRLIYAASTLDSGVPKRFSATRSGSDFSLTISSLESEDFADYYCLQYASYPFTFGSGTKLEIK | 
1.58 |  | 4.99 | 0.000159 | 32000 | 2.94 | 0.0848 | 0.523 | 3.24 | 3.19 | 2.73 | 0.143 | 4060 | 4720 | 4810 | 5170 | 4340 | 3900 | 3970 |  | c67A2E1D10 (antibody, V domains shown) VH: EVQLQQSGAELVKPGASVKLSCTASGFNIKNYYMHWVKQRTEEGLEWIGRIDPEDGETKYAPKFQAKATITADTSSNTAYLQLSSLTSEDTAVYFCARKGYYGNYGAWFAYWGQGTLVTVSA VL: DIQMTQSPASLSVSVGETVTITCRASEDLYSNLAWYQQKQGKSPQLLVYAATFLADGVPSRFSGSGSGTQYSLKINSLQSEDFGNYYCQHFWGTPPTFGGGTKLEIK | OD450 nm (as headed), mouse B lymphocyte proliferation; antibody 4 nM [11]: 3500; OD450 nm (as headed), mouse B lymphocyte proliferation; antibody 20 nM [11]: 2610; OD450 nm (as headed), mouse B lymphocyte proliferation; antibody 100 nM [11]: 1100
 |  |  |  |  |  |  |  |  |  |  |  |  |  |  |  |  |  |  | ~0.08 | h8E7D9C7F5-1 (antibody, human IgG1, V domains shown, Humanized (VH.1 / Vk.1); also called humanized BLyS antibody) VH: EVQLVQSGAEVKKPGASVKVSCKASGYTFTSYGISWVRQAPGQGLEWMGEIYPRSGNTYYNEKFKGRVTMTTDTSTSTAYMELRSLRSDDTAVYYCARSGPITTLVATDYGMDYWGQGTTVTVSS VL: DIVMTQSPDSLAVSLGERATINCRASKSVSTSSYSYMHWYQQKPGQPPKLLIKFASNLESGVPDRFSGSGSGTDFTLTISSLQAEDVAVYYCQHSREFPYTFGGGTKVEIK | 

More lines, now with the values behind:

Binder | OD450 nm [1] [OD450 nm] | Proportion of B lymphocytes in splenocytes (%), in vivo in mice [2] [%] | Kd [3] [nM] | koff [3] [s⁻¹] | kon [3] [M⁻¹ s⁻¹] | OD450 nm [4] [OD450 nm] | OD450 nm [5] [OD450 nm] | OD450 nm [6] [OD450 nm] | OD450 nm [7] [OD450 nm] | OD450 nm [8] [OD450 nm] | OD450 nm [9] [OD450 nm] | OD450 nm [10] [OD450 nm] | OD450 nm (as headed), mouse B lymphocyte proliferation; antibody 0 nM [11] | OD450 nm (as headed), mouse B lymphocyte proliferation; antibody 0.000256 nM [11] | OD450 nm (as headed), mouse B lymphocyte proliferation; antibody 0.00128 nM [11] | OD450 nm (as headed), mouse B lymphocyte proliferation; antibody 0.0064 nM [11] | OD450 nm (as headed), mouse B lymphocyte proliferation; antibody 0.032 nM [11] | OD450 nm (as headed), mouse B lymphocyte proliferation; antibody 0.16 nM [11] | OD450 nm (as headed), mouse B lymphocyte proliferation; antibody 0.8 nM [11] | EC50 (read off the curve) [12] [nM] | other results
h97A3C2H4-9 (antibody, human IgG1, V domains shown, Humanized (VH.1b / Vk.1d); also called humanized BLyS antibody) VH: EVQLVESGGGLVQPGGSLRLSCAASGFTFSTYTMSWVRQAPGKRLEWVAYISYGGGSTSYPDTVKGRFTISRDNAKNSLYLQMNSLRAEDTAVYYCTRHVTVVENSMDYWGQGTTVTVSS VL: DILLTQSPDFQSVTPKEKVTITCRASQSIGTSIHWYQQKTDQSPKLLIKYVSESFSGTPSRFSGSGSGTDFTLTINSLEAEDAATYYCQQTHSWPWTFGGGTKVEIK |  |  |  |  |  |  |  |  |  |  |  |  |  |  |  |  |  |  |  | 0.1 to 0.2 | 
c8E7D9C7F5 (antibody, human IgG1, V domains shown, also called BLyS chimeric antibody) VH: QVQLQQSGVELARPGASVKLSCKASGYTFTSYGISWVKQRTGQALEWIGEIYPRSGNTYYNEKFKGKATLTADKSSSTAYMELRSLTSEDSAVYFCARSGPITTLVATDYGMDYWGQGTSVTVSS VL: DIVLTQSPASLAVSLGQRATISCRASKSVSTSSYSYMHWYQQKPGQPPKLLIKFASNLESGVPARFSGSGSGTDFTLNIHPVEEEDAATYYCQHSREFPYTFGGGTKLEIK |  |  |  |  |  |  |  |  |  |  |  |  |  |  |  |  |  |  |  | ~0.1 | EC50 (read off the curve) [13]: ~0.1 nM
c93C6F10D3 (antibody, V domains shown) VH: EVQLVESGGGLVTPGGSLKLSCVASGFAFSTYGMSWVRQTPERRLEWVAYISGGGGSIYYPDSVKGRFTISRDNAKNILYLQMSSLKSEDTAMYHCTRHPDLLLRYDYALDHWGQGTSVTVSS VL: DIQMTQSPASLSASVGETVTITCRASENIHIYLAWYQQKQGKSPQLLVYNGKTLADGVPSRFSGSGSGTQYSLKINTLQPEDFGNYYCQHFWNSTWTFGGGTKLEIK |  | 27.1 | 0.386 | 0.000212 | 549000 |  |  |  |  |  |  |  | 4320 | 4600 | 4520 | 4920 | 4520 | 4300 | 1090 |  | OD450 nm (as headed), mouse B lymphocyte proliferation; antibody 4 nM [11]: 527; OD450 nm (as headed), mouse B lymphocyte proliferation; antibody 20 nM [11]: 434; OD450 nm (as headed), mouse B lymphocyte proliferation; antibody 100 nM [11]: 389
